This note sets out measurements from the supplement of paper PMC10567573.

A short description of the data set: protein stability index of a GFP-peptide fusion (GPS, HEK-293T) (PSI 1-6); higher = more stable.
Setting [1] is: treatment: DMSO, c terminus: a fixed tail appended.
[2] abbreviates: treatment: MLN4924 1 uM, 8 h, c terminus: a fixed tail appended.

± gives the standard deviation.
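Note: 24-mer peptide tiles fused after GFP, lentivirally expressed, FACS-sorted into six equal bins by GFP/DsRed ratio, decoded by Illumina sequencing, PSI is the read-weighted mean bin number.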

In turn, CLIQKAQWTVGKLNCPFCGARLGG [RNF180] displayed a protein stability index under setting [1] of 2.15 ± 0.18 and a protein stability index under setting [2] of 2.79 ± 0.36.
For CLTCGKSFRQGMHLTRHQRTHTGE [ZNF263] the same measures were 4.03 ± 0.23 and 3.98 ± 0.46.
On to CMYRHALPPGFVLKKDKKKEEKED [ZC3H15], for which the protein stability index is, setting by setting: under setting [1], 4.58 ± 0.21; under setting [2], 4.67 ± 0.15.
With CPASNECEITKRRRKACQACRFTK [ESRRA], the protein stability index under setting [1] worked out at 3.94 ± 0.33 and the protein stability index under setting [2] came out at 4.26 ± 0.23.
For CPTFRVSIARLEMGPDEYEEMEEE [FBXO3] the same measures were 4.7 ± 0.18 and 5.07 ± 0.21.
For CRGKKPSRIYGQAMAIINGSLYVF [KLHDC10] the same measures were 3.22 ± 0.66 and 2.51 ± 0.73.
Sequence CRVFWWLGDRDRSRAALVCRKWNQ [FBXO39] registered a protein stability index under setting [1] of 2.46 ± 0.87 and a protein stability index under setting [2] of 2.06 ± 0.41.
For CSKVSELTERLKVLEAKMTMLTVI [EMID1] the same measures were 2.63 ± 0.73 and 2.46 ± 0.38.
For CSRQFPEFQERARKRIRTYLKSCR [NOL4L] the same measures were 3.25 ± 0.15 and 3.36 ± 0.2.
For CSTTDHPYKKPYMETSPSEEDSFY [TBX5] the same measures were 4.34 ± 0.13 and 4.31 ± 0.2.
CTDFCLRNLDGTLGYLLDKETLRL [ZER1]: the protein stability index reads like this: under setting [1], 2 ± 0.23; under setting [2], 2.13 ± 0.17.
For CVSHLIIVTVHYGCASFIYLRPQS [OR10K2] the same measures were 2.99 ± 0.35 and 3.04 ± 0.46.
For DAATTDELSSLGSDSEANGFAERR [TBC1D10A] the same measures were 5.47 ± 0.34 and 5.42 ± 0.23.
For DALDSEGRDSEGPAEGEGRLGRCM [KCNG1] the same measures were 5.34 ± 0.28 and 5.53 ± 0.21.
DANTWRLYGGMNYRRLGGGVGVIK [KLHL20]: the protein stability index by setting is: under setting [1], 2.63 ± 0.24; under setting [2], 2.54 ± 0.38.
For DCDTSSICEDSFDGRSLSKLNLCE [SCARA5] the same measures were 4.84 ± 0.16 and 5.05 ± 0.12.
With DCIFDKFECAWNGSDSVIMTGAYN [PPP2R2C], the protein stability index under setting [1] came out at 2.68 ± 0.3 and the protein stability index under setting [2] turned out to be 2.74 ± 0.17.
For DDDDDDAQILPSRVQGGCYRFDSS [DRICH1] the same measures were 4.65 ± 0.095 and 4.88 ± 0.15.
For DDIVSGRLPCSFVTLALLGSYTVQ [EPB41L3] the same measures were 2.72 ± 0.44 and 2.53 ± 0.53.
For the sequence DEDFTFGAYQPTVVSSEGRQSRRQ [FBF1], the protein stability index is, setting by setting: under setting [1], 4.77 ± 0.24; under setting [2], 4.89 ± 0.3.
For DFLMCYSVAEGYYSHRETVNGSWY [CASP6] the same measures were 2.88 ± 0.8 and 2.86 ± 0.79.
For DGENLKNEEETPSCMASLWTAPLV [CDC25A] the same measures were 4.484 ± 0.031 and 4.5 ± 0.19.
In the case of DGKCAYRASYSDGKLKAPPKPCAG [MLH1], the protein stability index runs as follows: under setting [1], 4.11 ± 0.3; under setting [2], 4.06 ± 0.056.
For DIAAMTNSLFIDRQKCMAHRTRYP [TEKT4] the same measures were 2.45 ± 0.24 and 2.57 ± 0.19.
For DINSVRYYPSGDAFASGSDDATCR [GNB5] the same measures were 4.03 ± 0.047 and 4.22 ± 0.16.
Consider DIVDRGSTNLGVNQAGFTLHSAIY [ADD1], for which the protein stability index stood at 2.36 ± 0.16 under setting [1] and 2.49 ± 0.45 under setting [2].
In the case of DLKNVKSKIGSTDNIKYQPKGGQV [MAP2], the protein stability index amounted to 3.24 ± 0.16 under setting [1] and 3.54 ± 0.32 under setting [2].
For DLNIQLLKDGYRLDEIPDDEDLDL [FAM219A] the same measures were 5.17 ± 0.16 and 5.16 ± 0.079.
On to DLTASHDAALLEMENNHTVAITIL [MTUS2], for which the protein stability index is, setting by setting: under setting [1], 2.86 ± 0.21; under setting [2], 2.85 ± 0.25.
For DLTSSSSDELSWIIELLEKDGMAF [ELF3] the same measures were 2.86 ± 0.34 and 3.19 ± 0.29.
For DNLLQEMLLGGSPSDAPHAHHPLH [HNF4A] the same measures were 3.97 ± 0.49 and 4 ± 0.14.
For DPDGEEGSSIPWNHLPDPEIFRQR [ZNF24] the same measures were 4.97 ± 0.45 and 5.02 ± 0.15.
Take DPDGLVATYISEVHEHDGHLYLGS [APMAP]: the protein stability index runs as follows: under setting [1], 3.87 ± 0.18; under setting [2], 3.94 ± 0.39.
On to DPHTKKALEAHCRADELASQDGR [PPP2R5C], for which the protein stability index came to 5.16 ± 0.29 (treatment: DMSO, c terminus: native) and 5.3 ± 0.12 (treatment: MLN4924 1 uM, 8 h, c terminus: native).
With DQDPSVLYFSIHRYEQGRFWPHLK [HDAC6], the protein stability index by setting is: under setting [1], 2.25 ± 0.41; under setting [2], 2.16 ± 0.28.
For DRLRDEELAELEDALRNLKCGSGA [TRADD] the same measures were 4.95 ± 0.23 and 4.95 ± 0.24.
For DSARADDARQLFVLAGAAEEGFMT [GNAI1] the same measures were 4.21 ± 0.22 and 4.43 ± 0.077.
For DSCDRLTQSWSSQSSFNSLQRVPS [ETS1] the same measures were 3.99 ± 0.24 and 4.07 ± 0.23.
Consider DSSFPPALAEGYRYPELDTPKLDC [TBX6], for which the protein stability index by setting is: under setting [1], 4.7 ± 0.25; under setting [2], 4.72 ± 0.17.
For DSYYRLVIHRALDREQVSSYNITV [PCDHGA10] the same measures were 2.87 ± 0.6 and 2.44 ± 0.55.
For DTHNTNNLDTEELCEYFSQHLGEY [NECAB1] the same measures were 4.41 ± 0.36 and 4.17 ± 0.33.
For DYIMDEDQSKLAGLLDLNNAILQL [ESRRG] the same measures were 2.35 ± 0.25 and 2.6 ± 0.39.
For EAKEAKGSGYEKLGPSRDPDPLNI [RTP4], the protein stability index by setting is: under setting [1], 4.9 ± 0.21; under setting [2], 4.91 ± 0.18.
For EATHEPAAARIRAQVPDTRWSRVG the same measures were 4.62 ± 0.31 and 4.05 ± 0.41.
With EAVRQEMRRQEPLPPPPPPSRGGN [WAS], the protein stability index by setting is: under setting [1], 5.18 ± 0.21; under setting [2], 5.19 ± 0.11.
For ECPSMGTNEAACLLDNPLCADVLF [RHOBTB1] the same measures were 3.42 ± 0.34 and 3.94 ± 0.48.
For ECRSSVTSDSEGAHVNTLHSGTKR [PHTF1] the same measures were 4.87 ± 0.32 and 4.88 ± 0.17.
For ECVASNNVGEISVSTRLTVLREDQ [PTPRD] the same measures were 4.63 ± 0.19 and 4.54 ± 0.15.
Turning to EDAEAVEQLREALHEALLEYEAGR [ESRRA], the protein stability index is, setting by setting: under setting [1], 4.03 ± 0.35; under setting [2], 4.26 ± 0.18.
For EDPYMMGRIACANVLSDLYAMGIT [SEPHS2] the same measures were 2.39 ± 0.19 and 2.36 ± 0.18.
For EDSINNSLVQLQASHQQQVLPPRQ [MYBL2] the same measures were 4.93 ± 0.14 and 4.72 ± 0.19.
EEAKGALLGTSGLKRRFSRLENRY [DAPK3]: the protein stability index is, setting by setting: under setting [1], 3.8 ± 0.29; under setting [2], 3.96 ± 0.51.
For EECPAHLLEDPLCADVILVLQERV [RHOBTB2] the same measures were 3.4 ± 0.42 and 3.47 ± 0.52.
For EEEDQHMKLSLGGSEMGLSSHLQS [KLHL13] the same measures were 4.95 ± 0.12 and 4.91 ± 0.14.
For EEEEGEEEELIRIFQEQQKKWQQY [FAM9B] the same measures were 4.02 ± 0.23 and 4.13 ± 0.28.
With EEEKILRVKLEEDPDGEEGSSIPW [ZNF24], the protein stability index stood at 5.56 ± 0.13 under setting [1] and 5.58 ± 0.26 under setting [2].
For EEFCEFVKSNTEQMREAFATAFSK [ZBED1] the same measures were 3.76 ± 0.27 and 3.98 ± 0.32.
For EEKMETKTESSGIETEPTVHHLPL [EPB41L3] the same measures were 5.56 ± 0.37 and 5.49 ± 0.27.
Take EELMLVHSLEYIDLMETTQYMNEG [HDAC6]: the protein stability index under setting [1] was determined as 3.5 ± 0.2 and the protein stability index under setting [2] is 3.41 ± 0.3.
For EERVALNTEIEKLGRSIVSSPQGK [PKD2L1] the same measures were 5.06 ± 0.16 and 5.15 ± 0.32.
For EETVTQDCLQLIADSETPTIQKGS [TNFSF13B] the same measures were 5.53 ± 0.36 and 5.42 ± 0.14.
For EFDLSPLNLDIGQVYKETRLFLDG [AASDHPPT] the same measures were 2.89 ± 0.28 and 2.96 ± 0.27.
Regarding EGENYQKGERGEDSSEEKHLEEPG [CHGB], the protein stability index reads like this: under setting [1], 5.63 ± 0.39; under setting [2], 5.57 ± 0.32.
EGGLYFERRPVAQSTDGARGKRGY [SPSB2] gave a protein stability index under setting [1] of 4.55 ± 0.33 and a protein stability index under setting [2] of 5.03 ± 0.11.
For EGLAFLVSCPEGRADCASESACSS [PWWP2B] the same measures were 3.6 ± 0.41 and 3.71 ± 0.24.
For EGQRQAQEYEALLNIKVKLEAEIA [KRT18] the same measures were 3.94 ± 0.18 and 4 ± 0.43.
With EHCGAVCFVKDNPQKSYFIRLYGL [WAS], the protein stability index stood at 2.32 ± 0.35 under setting [1] and 2.31 ± 0.64 under setting [2].
Take EHKGWYSWVLSMLYGFLLTFGFIT [CLPTM1]: the protein stability index reads like this: under setting [1], 2.4 ± 0.56; under setting [2], 2.62 ± 0.37.
For EHKLKVVRDQISHCTVKLRQTTGL [TRIM9] the same measures were 3.35 ± 0.13 and 3.24 ± 0.25.
For EHQNKRSPLHAAAEAGHVDICHML [EHMT1] the same measures were 3.98 ± 0.27 and 3.94 ± 0.12.
For EIDEKVTDLVQFLLFKYQMKEPIT [MAGEA10] the same measures were 2.35 ± 0.5 and 1.75 ± 0.3.
Regarding EIEQYRLQREKEFKAKEAAALGSR [ATP6V1G1], the protein stability index is, setting by setting: under setting [1], 4.15 ± 0.21; under setting [2], 3.77 ± 0.047.
